# Data taken from publication PMC4512254.
# Biological target: all other cases (NTSR1 nanodisc preparations other than WT in 100% POPC nanodiscs)
# Assay: radioligand binding
substance,measurement,value
"[3H]NTS ([3,11-tyrosyl-3,5-3H(N)]-neurotensin) (peptide)",Kd,0.5 nM
